T1: human BDCA2 protein (Kactus Biosystems, Cat# BCA-HM402) (human, UniProt Q8WTT0 45-213)
T1 construct: also called Human BDCA2-His
T1 sequence: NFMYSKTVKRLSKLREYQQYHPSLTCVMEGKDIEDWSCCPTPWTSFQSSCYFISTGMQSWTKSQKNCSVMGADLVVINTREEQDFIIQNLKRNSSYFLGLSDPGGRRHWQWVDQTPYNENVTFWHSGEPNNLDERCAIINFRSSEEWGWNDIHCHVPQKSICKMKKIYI

T2: human APRIL protein (ACRO Biosystems, Cat. No.: APL-H52D1) (human, UniProt O75888 115-250, limits assumed)
T2 sequence (looked up): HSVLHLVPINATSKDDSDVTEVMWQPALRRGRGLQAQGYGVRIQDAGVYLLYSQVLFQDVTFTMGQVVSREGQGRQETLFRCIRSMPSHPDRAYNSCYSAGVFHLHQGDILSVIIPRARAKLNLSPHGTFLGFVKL


Assays:
[1] = target: T1, human BDCA2 protein (Kactus Biosystems, …); test: BLI Octet RED96e, protein captured on AHC sensor, BDCA2 100 nM in solution
[2] = target: T3, human BAFF protein (ACRO Biosystems, Cat. No.: BAF-H52D4) (human, UniProt Q9Y275 134-285); test: BLI Octet RED96e, protein captured on AHC sensor, BAFF 100 nM in solution
[3] = target: T2, human APRIL protein (ACRO Biosystems, …); test: BLI Octet RED96e, protein captured on AHC sensor, APRIL 100 nM in solution
[4] = target: T3, human BAFF protein (ACRO Biosystems, …); test: BLI Octet RED96e, protein captured on AHC sensor, BAFF 1.56-100 nM in solution
[5] = target: T1, human BDCA2 protein (Kactus Biosystems, …); test: BLI Octet RED96e, fusion protein captured on AHC sensor, BDCA2 1.56-100 nM in solution
[6] = target: T2, human APRIL protein (ACRO Biosystems, …); test: BLI Octet RED96e, protein captured on AHC sensor, APRIL 1.56-100 nM in solution
[7] = target: T1, human BDCA2 protein (Kactus Biosystems, …); test: BLI Octet RED96e, antibody captured on AHC sensor, BDCA2 100 nM in solution

Row | Binder | Kd [1] | Response (nm) [1] | koff [1] | kon [1] | Kd [2] | Response (nm) [2] | koff [2] | kon [2] | Kd [3] | Response (nm) [3] | koff [3] | kon [3] | further results
1 | control antibody litifilimab analogue (antibody, human IgG1, kappa, V domains shown, Anti-BDCA2 control antibody expressed in ExpiCHO-S cells) VH: DVQLVESGGGLVKPGGSLRLSCAASGFTFSTYTMSWVRQAPGKGLEWVATISPGDSFGYYYPDSVQGRFTISRDNAKNSLYLQMNSLRAEDTAVYYCTRDIYYNYGAWFAYWGQGTLVTVSS VL: DIQLTQSPSSLSASVGDRVTITCKASQSVDYDGDSYMNWYQQKPGKAPKLLIYAASTLESGVPSRFSGSGSGTDFTLTISSLQPEDFATYYCQQANEDPRTFGQGTKVEIKR | < 0.001 nM | 0.444 nm | < 1e-07 s⁻¹ | 172000 M⁻¹ s⁻¹ | < 0.001 nM | 0.0284 nm | < 1e-07 s⁻¹ | 300000 M⁻¹ s⁻¹ | 6.5 nM | 0.296 nm | 0.000643 s⁻¹ | 99000 M⁻¹ s⁻¹ | –
2 | bispecific fusion protein BI-9D2-3GS4 (bispecific antibody, human IgG1, kappa) heavy: not shown light: ETVLTQSPATLSLSPGERATLSCRASSSVSYMYWFQQKPGQAPRLLIYSTSNLASGIPARFSGSGSGTDYTLTISSLEPEDFAVYYCQQRRNYPHTFGGGTKVEIKRTVAAPSVFIFPPSDEQLKSGTASVVCLLNNFYPREAKVQWKVDNALQSGNSQESVTEQDSKDSTYSLSSTLTLSKADYEKHKVYACEVTHQGLSSPVTKSFNRGEC | 0.234 nM | 0.551 nm | 3.58e-05 s⁻¹ | 153000 M⁻¹ s⁻¹ | < 0.001 nM | 0.34 nm | < 1e-07 s⁻¹ | 422000 M⁻¹ s⁻¹ | 0.616 nM | 0.251 nm | 0.000582 s⁻¹ | 944000 M⁻¹ s⁻¹ | –
3 | bispecific fusion protein BI-9D2-1GS4 (bispecific antibody, human IgG1, kappa) heavy: not shown light: ETVLTQSPATLSLSPGERATLSCRASSSVSYMYWFQQKPGQAPRLLIYSTSNLASGIPARFSGSGSGTDYTLTISSLEPEDFAVYYCQQRRNYPHTFGGGTKVEIKRTVAAPSVFIFPPSDEQLKSGTASVVCLLNNFYPREAKVQWKVDNALQSGNSQESVTEQDSKDSTYSLSSTLTLSKADYEKHKVYACEVTHQGLSSPVTKSFNRGEC | < 0.001 nM | 0.591 nm | < 1e-07 s⁻¹ | 149000 M⁻¹ s⁻¹ | < 0.001 nM | 0.299 nm | < 1e-07 s⁻¹ | 400000 M⁻¹ s⁻¹ | 0.724 nM | 0.261 nm | 0.000589 s⁻¹ | 813000 M⁻¹ s⁻¹ | –
4 | bispecific fusion protein BI-9ND2-4GS4 (bispecific antibody, human IgG1, kappa) heavy: not shown light: ETVLTQSPATLSLSPGERATLSCRASSSVSYMYWFQQKPGQAPRLLIYSTSNLASGIPARFSGSGSGTDYTLTISSLEPEDFAVYYCQQRRNYPHTFGGGTKVEIKRTVAAPSVFIFPPSDEQLKSGTASVVCLLNNFYPREAKVQWKVDNALQSGNSQESVTEQDSKDSTYSLSSTLTLSKADYEKHKVYACEVTHQGLSSPVTKSFNRGEC | < 0.001 nM | 0.484 nm | < 1e-07 s⁻¹ | 125000 M⁻¹ s⁻¹ | < 0.001 nM | 0.468 nm | < 1e-07 s⁻¹ | 522000 M⁻¹ s⁻¹ | 0.0667 nM | 0.298 nm | 7.79e-05 s⁻¹ | 1.17e+06 M⁻¹ s⁻¹ | –
5 | bispecific fusion protein BI-9NTACI-A (bispecific antibody, human IgG1, kappa, also called heavy chain 37F2C6-HuVH3-3N-TACI) heavy: not shown light: ETVLTQSPATLSLSPGERATLSCRASSSVSYMYWFQQKPGQAPRLLIYSTSNLASGIPARFSGSGSGTDYTLTISSLEPEDFAVYYCQQRRNYPHTFGGGTKVEIKRTVAAPSVFIFPPSDEQLKSGTASVVCLLNNFYPREAKVQWKVDNALQSGNSQESVTEQDSKDSTYSLSSTLTLSKADYEKHKVYACEVTHQGLSSPVTKSFNRGEC | – | – | – | – | – | – | – | – | – | – | – | – | Kd [4]: 0.951 nM; koff [4]: 0.000342 s⁻¹; kon [4]: 360000 M⁻¹ s⁻¹; Kd [5]: < 0.001 nM; koff [5]: < 1e-07 s⁻¹; kon [5]: 85400 M⁻¹ s⁻¹; Kd [6]: 0.619 nM; koff [6]: 0.000478 s⁻¹; kon [6]: 772000 M⁻¹ s⁻¹
6 | bispecific fusion protein BI-9ND2-2GS4 (bispecific antibody, human IgG1, kappa) heavy: not shown light: ETVLTQSPATLSLSPGERATLSCRASSSVSYMYWFQQKPGQAPRLLIYSTSNLASGIPARFSGSGSGTDYTLTISSLEPEDFAVYYCQQRRNYPHTFGGGTKVEIKRTVAAPSVFIFPPSDEQLKSGTASVVCLLNNFYPREAKVQWKVDNALQSGNSQESVTEQDSKDSTYSLSSTLTLSKADYEKHKVYACEVTHQGLSSPVTKSFNRGEC | < 0.001 nM | 0.466 nm | < 1e-07 s⁻¹ | 115000 M⁻¹ s⁻¹ | < 0.001 nM | 0.492 nm | < 1e-07 s⁻¹ | 456000 M⁻¹ s⁻¹ | 0.275 nM | 0.339 nm | 0.000257 s⁻¹ | 937000 M⁻¹ s⁻¹ | –
7 | bispecific fusion protein BI-9ND2-3GS4 (bispecific antibody, human IgG1, kappa) heavy: not shown light: ETVLTQSPATLSLSPGERATLSCRASSSVSYMYWFQQKPGQAPRLLIYSTSNLASGIPARFSGSGSGTDYTLTISSLEPEDFAVYYCQQRRNYPHTFGGGTKVEIKRTVAAPSVFIFPPSDEQLKSGTASVVCLLNNFYPREAKVQWKVDNALQSGNSQESVTEQDSKDSTYSLSSTLTLSKADYEKHKVYACEVTHQGLSSPVTKSFNRGEC | < 0.001 nM | 0.473 nm | < 1e-07 s⁻¹ | 117000 M⁻¹ s⁻¹ | < 0.001 nM | 0.487 nm | < 1e-07 s⁻¹ | 489000 M⁻¹ s⁻¹ | 0.0944 nM | 0.327 nm | 9.99e-05 s⁻¹ | 1.06e+06 M⁻¹ s⁻¹ | –
8 | anti-BDCA2 humanized antibody Hu37F2C6-8 (antibody, human IgG1, kappa, V domains shown) VH: QVQLVQSGAEVKKPGASVKVSCKASGYTFTDFAVHWVRQAPGQRLEWMGLIGTSSGSTNYNQKFQGRVTMTVDKSANTAYMELSSLRSEDTAVYYCARNGYYVGYYALDYWGQGTTVTVSS VL: ETVLTQSPATLSLSPGERATLSCRASSSVSYMYWFQQKPGQAPRLLIYSTSNLASGIPARFSGSGSGTDYTLTISSLEPEDFAVYYCQQRRNYPHTFGGGTKVEIKR | – | – | – | – | – | – | – | – | – | – | – | – | Kd [7]: < 0.001 nM; koff [7]: < 1e-07 s⁻¹; kon [7]: 113000 M⁻¹ s⁻¹
9 | anti-BDCA2 humanized antibody Hu37F2C6-9 (antibody, human IgG1, kappa, V domains shown, also called humanized 37F2C6-9) VH: QVQLVQSGAEVKKPGASVKVSCKASGYTFTDFAVHWVRQAPGQRLEWMGLIGTSSGSTNYNQKFQGRATMTVDKSANTAYMELSSLRSEDTAVYYCARNGYYVGYYALDYWGQGTTVTVSS VL: ETVLTQSPATLSLSPGERATLSCRASSSVSYMYWFQQKPGQAPRLLIYSTSNLASGIPARFSGSGSGTDYTLTISSLEPEDFAVYYCQQRRNYPHTFGGGTKVEIKR | – | – | – | – | – | – | – | – | – | – | – | – | Kd [7]: < 0.001 nM; koff [7]: < 1e-07 s⁻¹; kon [7]: 121000 M⁻¹ s⁻¹

Further lines, with some results ahead:

Row | Kd [1] | Response (nm) [1] | koff [1] | kon [1] | Kd [2] | Response (nm) [2] | koff [2] | kon [2] | Kd [3] | Response (nm) [3] | koff [3] | kon [3] | Binder | further results
10 | < 0.001 nM | 0.457 nm | < 1e-07 s⁻¹ | 155000 M⁻¹ s⁻¹ | < 0.001 nM | 0.358 nm | < 1e-07 s⁻¹ | 382000 M⁻¹ s⁻¹ | 0.528 nM | 0.285 nm | 0.000435 s⁻¹ | 824000 M⁻¹ s⁻¹ | bispecific fusion protein BI-9D2-3G4S-4S (bispecific antibody, human IgG1, kappa) heavy: not shown light: ETVLTQSPATLSLSPGERATLSCRASSSVSYMYWFQQKPGQAPRLLIYSTSNLASGIPARFSGSGSGTDYTLTISSLEPEDFAVYYCQQRRNYPHTFGGGTKVEIKRTVAAPSVFIFPPSDEQLKSGTASVVCLLNNFYPREAKVQWKVDNALQSGNSQESVTEQDSKDSTYSLSSTLTLSKADYEKHKVYACEVTHQGLSSPVTKSFNRGEC | –
11 | < 0.001 nM | 0.56 nm | < 1e-07 s⁻¹ | 151000 M⁻¹ s⁻¹ | < 0.001 nM | 0.302 nm | < 1e-07 s⁻¹ | 412000 M⁻¹ s⁻¹ | 0.391 nM | 0.242 nm | 0.000339 s⁻¹ | 866000 M⁻¹ s⁻¹ | bispecific fusion protein BI-9D2-2GS4 (bispecific antibody, human IgG1, kappa) heavy: not shown light: ETVLTQSPATLSLSPGERATLSCRASSSVSYMYWFQQKPGQAPRLLIYSTSNLASGIPARFSGSGSGTDYTLTISSLEPEDFAVYYCQQRRNYPHTFGGGTKVEIKRTVAAPSVFIFPPSDEQLKSGTASVVCLLNNFYPREAKVQWKVDNALQSGNSQESVTEQDSKDSTYSLSSTLTLSKADYEKHKVYACEVTHQGLSSPVTKSFNRGEC | –
12 | < 0.001 nM | 0.476 nm | < 1e-07 s⁻¹ | 154000 M⁻¹ s⁻¹ | < 0.001 nM | 0.394 nm | < 1e-07 s⁻¹ | 402000 M⁻¹ s⁻¹ | 0.166 nM | 0.29 nm | 0.000134 s⁻¹ | 808000 M⁻¹ s⁻¹ | bispecific fusion protein BI-9D2-3G4S-8S (bispecific antibody, human IgG1, kappa) heavy: not shown light: ETVLTQSPATLSLSPGERATLSCRASSSVSYMYWFQQKPGQAPRLLIYSTSNLASGIPARFSGSGSGTDYTLTISSLEPEDFAVYYCQQRRNYPHTFGGGTKVEIKRTVAAPSVFIFPPSDEQLKSGTASVVCLLNNFYPREAKVQWKVDNALQSGNSQESVTEQDSKDSTYSLSSTLTLSKADYEKHKVYACEVTHQGLSSPVTKSFNRGEC | –

From patent EP4786495A1 (Nanjing Leads Biolabs Co., Ltd., dated 2026)
